# Assay results: US20120027687A1, “FATTY ACID PROTEIN KINASE C ACTIVATORS AND ANTICOAGULANT FOR THE TREATMENT OF STROKE” (priority 2010, published 2012)
# B1: rTPA: recombinant tissue plasminogen activator, thrombolytic serine protease (protein, UniProt P00750 36-562, looked up)
# Tissue-type plasminogen …: SYQVICRDEKTQMIYQQHQSWLRPVLRSNRVEYCWCNSGRAQCHSVPVKSCSEPRCFNGGTCQQALYFSDFVCQCPEGFAGKCCEIDTRATCYEDQGISYRGTWSTAESGAECTNWNSSALAQKPYSGRRPDAIRLGLGNHNYCRNPDRDSKPWCYVFKAGKYSSEFCSTPACSEGNSDCYFGNGSAYRGTHSLTESGASCLPWNSMILIGKVYTAQNPSAQALGLGKHNYCRNPDGDAKPWCHVLKNRRLTWEYCDVPSCSTCGLRQYSQPQFRIKGGLFADIASHPWQAAIFAKHRRSPGERFLCGGILISSCWILSAAHCFQERFPPHHLTVILGRTYRVVPGEEEQKFEVEKYIVHKEFDDDTYDNDIALLQLKSDSSRCAQESSVVRTVCLPPADLQLPDWTECELSGYGKHEALSPFYSERLKEAHVRLYPSSRCTSQHLLNRTVTDNMLCAGDTRSGGPQANLHDACQGDSGGPLVCLNDGRMTLVGIISWGLGCGQKDVPGVYTKVTNYLDWIRDNMRP
# System: ischemic stroke (MCAO)
# Assay: Transient focal ischemia (MCAO) model of stroke
# Type: in vivo, rat
# Settings: rats; rTPA 6 hours after stroke, with or without bryostatin-1 2 hours later
# Experimental: A transient animal model of focal ischemia was used for these experiments. The middle cerebral artery (MCA) was surgically dissected and occluded in anesthetized rats by ligature, followed by reperfusion after a defined period (about 2 hours). Animal models transient ischemia via occlusion of the MCA (MCAO) are described in, e.g., Sicard and Fisher, Exp. & Transl. Stroke Med. (2009), vol. 1, pp. 1-7.
molecule,measurement,value
B1,mortality 24 hours later,44%
